Source: IntAct's records for PubMed 20588253

B1: Mitogen-activated protein kinase kinase kinase 2 (Homo sapiens), Q9Y2U5 (parent)
chain: MDDQQALNSIMQDLAVLHKASRPALSLQETRKAKSSSPKKQNDVRVKFEHRGEKRILQFPRPVKLEDLRSKAKIAFGQSMDLHYTNNELVIPLTTQDDLDKAVELLDRSIHMKSLKILLVINGSTQATNLEPLPSLEDLDNTVFGAERKKRLSIIGPTSRDRSSPPPGYIPDELHQVARNGSFTSINSEGEFIPESMDQMLDPLSLSSPENSGSGSCPSLDSPLDGESYPKSRMPRAQSYPDNHQEFSDYDNPIFEKFGKGGTYPRRYHVSYHHQEYNDGRKTFPRARRTQGTSLRSPVSFSPTDHSLSTSSGSSIFTPEYDDSRIRRRGSDIDNPTLTVMDISPPSRSPRAPTNWRLGKLLGQGAFGRVYLCYDVDTGRELAVKQVQFDPDSPETSKEVNALECEIQLLKNLLHERIVQYYGCLRDPQEKTLSIFMEYMPGGSIKDQLKAYGALTENVTRKYTRQILEGVHYLHSNMIVHRDIKGANILRDSTGNVKLGDFGASKRLQTICLSGTGMKSVTGTPYWMSPEVISGEGYGRKADIWSVACTVVEMLTEKPPWAEFEAMAAIFKIATQPTNPKLPPHVSDYTRDFLKRIFVEAKLRPSADELLRHMFVHYH

Variants of: B1
Conditions: with chip_human STUB1, Q9UNE7
chip_human STUB1, Q9UNE7, sequence (Q9UNE7 whole entry): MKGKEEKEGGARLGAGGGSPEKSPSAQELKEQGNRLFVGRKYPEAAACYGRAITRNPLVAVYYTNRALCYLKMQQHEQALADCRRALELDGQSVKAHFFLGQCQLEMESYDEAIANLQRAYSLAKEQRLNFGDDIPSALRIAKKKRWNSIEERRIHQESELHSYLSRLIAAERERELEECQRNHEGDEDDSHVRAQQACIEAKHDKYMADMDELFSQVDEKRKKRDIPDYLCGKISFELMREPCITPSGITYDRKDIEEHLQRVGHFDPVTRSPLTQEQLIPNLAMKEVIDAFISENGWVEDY

effect of a mutation on the interaction	Variant
disrupting interaction	K385M

Variants of: B1
Conditions: with chip_human STUB1, Q9UNE7
Remark: another data set of the same source

effect of a mutation on the interaction	Variant
increasing interaction	K385M

Variants of: B1
Conditions: with ubc_human UBC

effect of a mutation on the interaction	Variant
disrupting interaction	K385M
